According to US20180009908:

Tests used:
[1] = biological target: matuzumab HC_20.8.34_B + matuzumab LC (IgG4 HC backbone); assay: LCMS, IgG4 BsAb co-expression; HCA/HCB heterodimer carrying two LC1
[2] = biological target: matuzumab HC_20.8.34_B + matuzumab LC (IgG4 HC backbone); assay: LCMS, IgG4 BsAb co-expression; HCA/HCB heterodimer carrying two LC2
[3] = LCMS, IgG4 BsAb co-expression; HCA homodimer species
[4] = biological target: matuzumab HC_20.8.34_B + matuzumab LC (IgG4 HC backbone); assay: LCMS, IgG4 BsAb co-expression in HEK293F
[5] = biological target: T1, HA-tagged human IgG1 Fc portion with CH3 mutations E357D, S364Q, Y407A; assay: UPLC SEC of protein G-purified one-arm antibody co-expressed in HEK293F
T1 chain: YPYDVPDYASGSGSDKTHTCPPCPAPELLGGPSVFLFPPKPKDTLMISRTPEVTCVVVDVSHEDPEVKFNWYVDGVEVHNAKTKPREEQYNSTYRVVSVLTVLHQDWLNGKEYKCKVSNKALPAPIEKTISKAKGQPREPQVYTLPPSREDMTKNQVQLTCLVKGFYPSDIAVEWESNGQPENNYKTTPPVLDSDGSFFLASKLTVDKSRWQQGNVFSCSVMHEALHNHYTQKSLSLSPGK

[6] = biological target: T2, HA-tagged human IgG1 Fc portion with CH3 mutations E357D, S364R, Y407A; assay: as above
T2 chain: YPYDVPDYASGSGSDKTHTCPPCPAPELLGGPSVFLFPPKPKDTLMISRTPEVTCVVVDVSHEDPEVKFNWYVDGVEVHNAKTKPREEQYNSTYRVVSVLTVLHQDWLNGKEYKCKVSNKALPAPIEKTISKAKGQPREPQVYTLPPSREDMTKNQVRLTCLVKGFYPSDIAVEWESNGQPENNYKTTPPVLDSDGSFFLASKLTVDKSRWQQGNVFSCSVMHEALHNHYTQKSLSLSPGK

[7] = biological target: T3, HA-tagged human IgG1 Fc portion with CH3 mutations E356G, E357D, S364Q, Y407A; assay: as above
T3 chain: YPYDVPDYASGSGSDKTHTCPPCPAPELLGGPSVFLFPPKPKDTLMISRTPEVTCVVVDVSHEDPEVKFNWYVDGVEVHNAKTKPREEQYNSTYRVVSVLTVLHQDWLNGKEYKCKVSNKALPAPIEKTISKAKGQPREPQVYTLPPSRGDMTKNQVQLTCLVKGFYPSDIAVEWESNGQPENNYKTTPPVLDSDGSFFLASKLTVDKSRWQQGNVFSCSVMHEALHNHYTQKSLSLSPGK

B1: MetMAb HC_20.8.34_A + MetMAb LC (IgG4 HC backbone) (protein)
chain 1: EVQLVESGGGLVQPGGSLRLSCAASGYTFTSYWLHWVRKAPGKGLEWVGMIDPSNSDTRFNPEFKDRFTISADTSKNTAYLQMNSLRAEDTAVYYCATYRSYVTPLDYWGQGTLVTVSSASTKGPSVFPLAPCSRSTSESTAALGCLVKDYFPEPVTVSWNSGALTSGVATGPAVLQSSGLYSLSSVVTVPSSSLGTKTYTCNVDHKPSNTKVDKRVESKYGPPCPPCPAPEAAGGPSVFLFPPKPKDTLMISRTPEVTCVVVDVSQEDPEVQFNWYVDGVEVHNAKTKPREEQFQSTYRVVSVLTVLHQDWLNGKEYKCKVSNKGLPSSIEKTISKAKGQPREPQVSTLPPSQEEMTKNQVSLMCLVYGFYPSDIAVEWESNGQPENNYKTTPPVLDSDGSFFLYSVLTVDKSRWQEGNVFSCSVMHEALHNHYTQKSLSLSLG
chain 2: RIQMTQSPSSLSASVGDRVTITCKSSQSLLYTSSQKNYLAWYQDKPGKAPKLLIYWASTRESGVPSRFSGSGSGTDFTLTISSLQPEDFATYYCQQYYAYPWTFGQGTKVEIKGQPKAAPSVTLFPPSSEELQANKATLVCYISDFYPGAVTVAWKADSSPVKAGVETTTPSKQSNNKYAAWSYLSLTPEQWKSHRSYSCQVTHEGSTVEKTVAPTEC
% AB (2x LC1) (incorrect assembly) [1]: 0%
% AB (2x LC2) (incorrect assembly) [2]: 0%
% AA Homodimer (incorrect assembly) [3]: 0%
% AB (LC1/LC2) (correct IgG BsAb assembly) [4]: 100%

B2: anti-c-Met 5D5 VH-human IgG1 HC with CH3 mutations Y349S, K370Y, T366V, K409V, with 5D5 light chain (protein)
chain 1: EVQLVESGGGLVQPGGSLRLSCAASGYTFTSYWLHWVRQAPGKGLEWVGMIDPSNSDTRFNPNFKDRFTISADTSKNTAYLQMNSLRAEDTAVYYCATYRSYVTPLDYWGQGTLVTVSSASTKGPSVFPLAPSSKSTSGGTAALGCLVKDYFPEPVTVSWNSGALTSGVHTFPAVLQSSGLYSLSSVVTVPSSSLGTQTYICNVNHKPSNTKVDKRVEPKSCDKTHTCPPCPAPELLGGPSVFLFPPKPKDTLMISRTPEVTCVVVDVSHEDPEVKFNWYVDGVEVHNAKTKPREEQYNSTYRVVSVLTVLHQDWLNGKEYKCKVSNKALPAPIEKTISKAKGQPREPQVSTLPPSREEMTKNQVSLVCLVYGFYPSDIAVEWESNGQPENNYKTTPPVLDSDGSFFLYSVLTVDKSRWQQGNVFSCSVMHEALHNHYTQKSLSLSPGK
chain 2: DIQMTQSPSSLSASVGDRVTITCKSSQSLLYTSSQKNYLAWYQQKPGKAPKLLIYWASTRESGVPSRFSGSGSGTDFTLTISSLQPEDFATYYCQQYYAYPWTFGQGTKVEIKRTVAAPSVFIFPPSDEQLKSGTASVVCLLNNFYPREAKVQWKVDNALQSGNSQESVTEQDSKDSTYSLSSTLTLSKADYEKHKVYACEVTHQGLSSPVTKSFNRGEC
% heterodimer (UPLC) [5]: 84.9%
% heterodimer (UPLC) [6]: 86.5%
% heterodimer (UPLC) [7]: 93%

B3: anti-c-Met 5D5 VH-human IgG1 HC with CH3 mutations Y349S, K370Y, T366M, K409V, with 5D5 light chain (protein)
chain 1: EVQLVESGGGLVQPGGSLRLSCAASGYTFTSYWLHWVRQAPGKGLEWVGMIDPSNSDTRFNPNFKDRFTISADTSKNTAYLQMNSLRAEDTAVYYCATYRSYVTPLDYWGQGTLVTVSSASTKGPSVFPLAPSSKSTSGGTAALGCLVKDYFPEPVTVSWNSGALTSGVHTFPAVLQSSGLYSLSSVVTVPSSSLGTQTYICNVNHKPSNTKVDKRVEPKSCDKTHTCPPCPAPELLGGPSVFLFPPKPKDTLMISRTPEVTCVVVDVSHEDPEVKFNWYVDGVEVHNAKTKPREEQYNSTYRVVSVLTVLHQDWLNGKEYKCKVSNKALPAPIEKTISKAKGQPREPQVSTLPPSREEMTKNQVSLMCLVYGFYPSDIAVEWESNGQPENNYKTTPPVLDSDGSFFLYSVLTVDKSRWQQGNVFSCSVMHEALHNHYTQKSLSLSPGK
chain 2: DIQMTQSPSSLSASVGDRVTITCKSSQSLLYTSSQKNYLAWYQQKPGKAPKLLIYWASTRESGVPSRFSGSGSGTDFTLTISSLQPEDFATYYCQQYYAYPWTFGQGTKVEIKRTVAAPSVFIFPPSDEQLKSGTASVVCLLNNFYPREAKVQWKVDNALQSGNSQESVTEQDSKDSTYSLSSTLTLSKADYEKHKVYACEVTHQGLSSPVTKSFNRGEC
% heterodimer (UPLC) [5]: 86%
% heterodimer (UPLC) [6]: 83.5%
% heterodimer (UPLC) [7]: 83.8%
